In article PMC12005765 (Advanced Science, 2025):

Columns and labels:
Experiment in all cases: SPR; IgGs or Fc fusions captured on antihuman Fc polyclonal antibodies amine-coupled to a CM5 chip; spike trimer or CD3 epsilon-delta heterodimer injected; blank flow cell subtracted; 1:1 Langmuir model, simultaneous global fit of ka and kd, KD = kd/ka; BIAcore 2000 (methods) or BIAcore T100 (footnote of Table S3)
[1] = biological target: SA07, anti-S/CD3 bispecific antibody-like molecule from ACE2-Fc/UCHT1 (UniProt Q9BYF1)
[2] = biological target: SS12, anti-S/CD3 bispecific CrossMab from S3H3/UCHT1
Chain of SS12, anti-S/CD3 bispecific CrossMab from S3H3/UCHT1 (heavy, as listed by the source, chain 1 of 4): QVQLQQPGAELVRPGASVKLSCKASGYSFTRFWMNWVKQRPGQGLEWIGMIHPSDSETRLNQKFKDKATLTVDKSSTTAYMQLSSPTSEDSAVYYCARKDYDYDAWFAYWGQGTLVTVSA
Chain of SS12, anti-S/CD3 bispecific CrossMab from S3H3/UCHT1 (heavy, as listed by the source, chain 2 of 4): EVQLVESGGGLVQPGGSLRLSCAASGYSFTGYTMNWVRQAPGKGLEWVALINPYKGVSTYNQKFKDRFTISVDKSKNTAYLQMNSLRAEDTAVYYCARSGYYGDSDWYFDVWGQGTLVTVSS
Chain of SS12, anti-S/CD3 bispecific CrossMab from S3H3/UCHT1 (light, as listed by the source, chain 3 of 4): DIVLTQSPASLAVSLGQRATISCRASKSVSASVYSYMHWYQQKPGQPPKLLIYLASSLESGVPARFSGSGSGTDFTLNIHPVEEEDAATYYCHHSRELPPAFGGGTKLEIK
Chain of SS12, anti-S/CD3 bispecific CrossMab from S3H3/UCHT1 (light, as listed by the source, chain 4 of 4): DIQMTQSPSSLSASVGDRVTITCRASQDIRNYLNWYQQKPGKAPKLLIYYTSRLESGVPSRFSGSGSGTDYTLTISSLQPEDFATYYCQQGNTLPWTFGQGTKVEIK

[3] = biological target: ectodomain of the S trimer from the prototypic SARS-CoV-2 Wuhan-Hu-1 strain (SARS-CoV-2 Wuhan-Hu-1) (UniProt P0DTC2)

Substance | Kd [1] | Kd [2] | Kd [3] | koff [3] | kon [3]
ectodomain of the S trimer from the prototypic SARS-CoV-2 Wuhan-Hu-1 strain (from UniProt P0DTC2 14-1213) (domain or fragment) | 9.39 nM | 6.2 nM |  |  | 
SC02, anti-S/CD3 bispecific CrossMab from CV3-25/UCHT1 (bispecific antibody) |  |  | 4.82 nM | 0.00436 s⁻¹ | 904000 M⁻¹ s⁻¹
